Two substances from patent publication US20040248787A1 can be followed below.

This test has as its target normal MITF (M type), expressed from plasmid pSU063 (MITF-M/pCDNA3) in COS7 cells (UniProt Q08874). Briefly: cell-based or functional assay.
UniProt Q08874, sequence (Q08874 other isoform, or with tags, fused parts or gaps limits assumed): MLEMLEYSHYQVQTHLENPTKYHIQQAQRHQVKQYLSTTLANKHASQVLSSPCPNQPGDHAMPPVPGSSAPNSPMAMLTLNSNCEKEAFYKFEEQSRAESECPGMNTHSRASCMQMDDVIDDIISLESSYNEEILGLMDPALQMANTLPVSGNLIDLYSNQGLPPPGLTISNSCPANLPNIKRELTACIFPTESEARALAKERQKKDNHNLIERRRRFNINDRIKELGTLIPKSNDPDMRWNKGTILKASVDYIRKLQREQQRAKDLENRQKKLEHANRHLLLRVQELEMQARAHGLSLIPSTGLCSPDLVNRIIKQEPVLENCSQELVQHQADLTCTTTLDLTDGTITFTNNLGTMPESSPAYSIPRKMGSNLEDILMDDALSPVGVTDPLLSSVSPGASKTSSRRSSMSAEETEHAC

“His Tag-PTD-mi variant of MITF (from UniProt Q08874 119-526)” yielded a Luciferase activity (c-kit promoter R-luc reporter in COS7 cells, PBS addition taken as 1) (relative to PBS = 1) of 0.92. To “His Tag-PTD-wh variant of MITF (from UniProt Q08874 119-526)” belongs 0.72.
